# According to PMC10943098:
# Target: PP2A-B55 phosphatase (B55, A and C subunits) of Xenopus egg extracts (Xenopus (endogenous in egg extracts)) (UniProt Q7ZX64)
# Assay: enzyme inhibition kinetics (dephosphorylation of p-S113-Arpp19); kinase inactivated interphase extracts diluted 1/50 to 1/200; substrate p-S113-Arpp19 120 to 2000 nM; FAM122A 50, 125 and 250 nM or Thio-S71-Arpp19 1, 2 and 3 nM; quantitative western blot; global fit, competitive mode
row,Substance,Ki
1,His-Xenopus FAM122A (wildtype) (natural protein),28.1 nM
2,untagged thio-S71-phosphorylated Arpp19 (natural protein),0.22 nM
